For orientation: Km means the concentration of substrate that gives half-maximal velocity. A word on the Vmax: it is the rate approached at saturating substrate.

Km and Vmax data for 3 molecules are collected here from publication PMC7470129, “Synthesis and structure-activity relationships of cerebroside analogues as substrates of cerebroside sulphotransferase and discovery of a competitive inhibitor” (Journal of Enzyme Inhibition and Medicinal Chemistry, 2020).

Test in all cases: capillary electrophoresis enzyme assay, Michaelis-Menten kinetics (Km)
The target in data set [1] is T1, galactosylceramide (cerebroside) sulphotransferase (CST) (Homo sapiens, UniProt Q99999).
T1 construct: gene GAL3ST1
T1 sequence (Q99999 1-423): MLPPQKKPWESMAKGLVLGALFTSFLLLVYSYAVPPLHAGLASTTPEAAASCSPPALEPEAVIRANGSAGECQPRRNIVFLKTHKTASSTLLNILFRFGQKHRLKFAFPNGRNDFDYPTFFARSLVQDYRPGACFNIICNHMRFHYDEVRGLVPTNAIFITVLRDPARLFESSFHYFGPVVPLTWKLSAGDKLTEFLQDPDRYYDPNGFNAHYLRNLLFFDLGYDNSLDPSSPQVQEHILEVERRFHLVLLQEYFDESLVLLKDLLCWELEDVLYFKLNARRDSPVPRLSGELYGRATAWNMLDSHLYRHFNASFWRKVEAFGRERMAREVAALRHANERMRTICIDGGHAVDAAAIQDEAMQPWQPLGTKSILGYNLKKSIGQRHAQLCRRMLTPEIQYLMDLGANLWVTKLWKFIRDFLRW
Format: biochemical.

Substrate in data set [2]: CCCCCCCCCCCCCCCCCCC(=O)N[C@@H](CO[C@H]1O[C@H](CO)[C@H](O)[C@H](O)[C@H]1O)[C@H](O)[C@H](O)CCCCCCCCCCCCCC
It counts as biochemical, Homo sapiens. To be noted: PAPS.

Substrate in data set [3]: CCCCCCCCCCCCCC[C@@H](O)[C@@H](O)[C@H](CO[C@H]1O[C@H](CO)[C@H](O)[C@H](O)[C@H]1O)NC(=O)CCCC
It counts as biochemical, Homo sapiens. To be noted: PAPS.

Take `CCCCCCCCCCCCCCCCCCCCCCCCCC(=O)N[C@@H](CO[C@H]1O[C@H](CO)[C@H](O)[C@H](O)[C@H]1O)[C@H](O)[C@H](O)CCCCCCCCCCCCCC` [compound 18, KRN7000]: the Michaelis constant (Km) in data set [1] was 438 µM.

On to `CCCCCCCCCCCCCCCCCCCCCCCCCC(=O)N[C@@H](CO[C@@H]1O[C@H](CO)[C@H](O)[C@H](O)[C@H]1O)[C@H](O)[C@H](O)CCCCCCCCCCCCCC` [compound 10, β-KRN7000], for which the Michaelis-Menten constant (Km) in data set [1] is 550 µM.

B1: galactosylceramide (cerebroside) sulphotransferase (CST) (Homo sapiens) (protein)
chain: T1 sequence (Q99999 1-423)
In the case of B1, in data set [2], the Km came to 521 µM and the Vmax came to 0.0519 µmol/min/mg. For the same molecule, in data set [3], the Km is 358 µM and the Vmax was found to be 0.0449 µmol/min/mg.
